# “Also recorded” adds a separate entry of the source.
# How the values were obtained:
# [1] = system: HEK293-F; assay: Luciferase time course under hypoxia, transiently transfected HEK293-F; type: cell-based, human; settings: 5% oxygen, 3, 5 and 24 hrs
# Protocol: The constructs were initially used to drive luciferase expression in HEK293-F and HEK293-T in hypoxia.
# 40 ml of cells were grown in a 250 ml vented Erlenmeyer flask (Sigma-Aldrich CLS431144) at 37° C., 20% O2, 8% CO2 with agitation at 100 rpm. Cells were seeded as described in the manufacturer's instructions (300,000 cells/ml). HEK293-F were obtained from Thermofisher, R79007.
# One day before transfection, the cells were counted using a haemocytometer and split to 500,000 cells/ml.
# On the day of transfection, the cells are seeded to 1,000,000 cells/ml in 500 μl of appropriate medium (Freestyle 293 expression medium, 12338002) in a 24 well plate. […] of DNA per well was then added to 10 μl of OptiMem medium (Thermofisher; 11058021) and incubated for 5 minutes at room temperature.
# Concurrently, 0.625 μl of Max reagent (Thermofisher, 16447100) was made up to 10 μl by addition of OptiMem and incubated for 5 minutes at room temperature. After this incubation, both mixes were added to the same tube and incubated at room temperature for 25-30 minutes. […]
# After transfection the cells were incubated for 24 hrs in normoxia conditions (20% oxygen) before being switched to a gas mix of 5% oxygen, 10% carbon dioxide and 85% nitrogen (hypoxia). […] Induction of the promoters was assessed by using luciferase activity after 3, 5 and 24 hrs in hypoxia.
# Luciferase activity was measured using LARII (Dual Luciferase Reporter 1000 assay system, Promega, E1980).
# Media was removed from the cells at the respective time point (0, 3, 5, 24 hrs after induction). […] 10 μl of supernatant was pipetted into white 96-well plate and luminescence measured by addition of 50 μl of LARII substrate.
# β-galactosidase activity was measured as per manufacturer's instructions (Mammalian βGalactosidase Assay Kit, 75707/75710, Thermo Scientific) using 25 μl of lysate. […] The mixture was incubated at 37° C. for 30 min and absorbance measured at 405 nm.
# Luciferase readouts were normalised to β-galactosidase to produce normalised relative luminometer units (RLUs).
# [2] = system: Huh7 human liver cell line; assay: Luciferase expression from promoters in pAAV vector (with ITRs) in Huh7, forskolin or NKH477 induction; design: fold induction with forskolin: dose or concentration left out as unconfirmed
# Protocol: The forskolin-inducible promoters RTV-017, RTV-019 and FORCYB1 were then used to drive expression of luciferase in a pAAV vector in the Huh7 human liver cell line. […] This experiment was performed to investigate the effect of the Inverted Terminal Repeats (ITRs) on the activity of the promoters.
# The cells were seeded, transfected and induced as described above. Luciferase expression was measured as described above. In this experiment, the cells were induced by using 20 pM forskolin or 7.2 pM of the water soluble derivative NKH477.
# [3] = system: Huh7 human liver cell line; assay: Luciferase expression from forskolin-inducible promoters, transient transfection of PM-RQ plasmid in Huh7; type: cell-based; design: luciferase activity following induction / fold induction of promoter (luciferase activity): dose or concentration left out as unconfirmed
# Protocol: Luciferase readouts were normalised to β-galactosidase to produce normalised relative luminometer units (RLUs). β-galactosidase containing pcDNA6 plasmid was used as internal control for transfection efficiency (Thermofisher, V22020). β-galactosidase activity was measured as per manufacturer's instructions (Mammalian βGalactosidase Assay Kit, 75707/75710, Thermo Scientific) using 25 μl of lysate. 25 μl of lysate was transferred into a microplate well and mixed with 25 μl of β-galactosidase Assay Reagent, equilibrated to room temperature. The mixture was incubated at 37° C. for 30 min and absorbance measured at 405 nm.
# The forskolin-inducible promoters were initially used to drive expression of luciferase in the Huh7 human liver cell line and the C2C12 […]. The promoter constructs were used to drive expression of luciferase in the PM-RQ plasmid. The tested promoters were synthesised directly upstream of the ATG of PM-RQ plasmid.
# • Huh7 cells which are a human liver cell line • DPBS: without CaCl2, without MgCl2 (Gibco, 14190-094) • DMEM (Sigma, D6546) • FBS (Sigma, F9665) • Pen-Strep (Sigma, P4333) • Promega Fugene-HD (E2311) • Forskolin (Sigma, F6886) • NKH477 (Sigma, N3290) • LARII (Dual Luciferase Reporter 1000 assay system, Promega, E1980) • 48 well plates flat bottom (353230, Corning) • Trypsin-EDTA (25200-056, Gibco) • T25 & T75 flask (353108, 353136, Corning) • 15 ml Falcon tubes (430791, Corning) • Stripettes 5 ml, 10 ml and 25 ml (4101,4051,4251, Corning)
# Cells were seeded onto a 48 well plate at a density of 25,000 cells/300 μl
# • On the day of transfection, DNA to be transfected was diluted to a 100 ng/μl stock solution. DNA to be transfected was the RTV-017, RTV-019 or CMV-IE promoter driving luciferase in the PM-RQ plasmid. • Per 48 well transfection, 45 ng of DNA was mixed with 4.1 μl of Optimem medium. • 0.5 μl of […] was mixed with 4 μl of Optimem medium. • These 2 solutions were mixed and incubated at room temperature for 15 minutes. • The final solution was then added to the well drop wise. • 3 hrs after transfection the inducer was added to the appropriate wells at the indicated concentration. Inducer was forskolin at […].
# • 24 hrs after induction, the luciferase activity was measured as described below.
# • Luciferase activity was measured using LARII (Dual Luciferase Reporter 1000 assay system, Promega, E1980) • 24 hours after induction, the media was removed from the cells • The cells were washed once in 300 μl of DPBS. • Cells were lysed using 100 μl of passive lysis buffer and incubated with rocking for 15 minutes. • The cell debris was pelleted by centrifugation of the plate at max speed in a benchtop centrifuge for 1 min • For luciferase, 10 μl sample was transferred into white 96-well plate and luminescence measured by injection of 50 μl of LARII substrate
# RTV-017 and RTV-019 were transiently transfected into the human liver cell line Huh7 (FIG. 2). RTV-019 was transiently transfected into the […] C2C12 (FIG. 3). The activity of the promoters was assessed using luciferase activity. The luciferase activity was measured with and without the presence of […] forskolin.
Molecule,effect of switch to hypoxia on luciferase activity [1],fold induction with forskolin ([2]; Huh7) [fold],luciferase activity without induction (background) ([2]; Huh7),"fold induction with NKH477 ([2]; Huh7, 7.2 pM NKH477) [fold]","luciferase activity following induction ([2]; Huh7, or 7.2 pM NKH477)","luciferase activity without induction (background) ([3]; Huh7, before addition of forskolin)","luciferase activity following induction ([3]; Huh7, forskolin)","fold induction of promoter (luciferase activity) ([3]; Huh7 liver cells, PM-RQ plasmid, forskolin, 24 hrs after induction) [fold]"
"CMV minimal promoter: CMV minimal promoter, SEQ ID NO: 28; named as control in FIG. 13 legend (nucleic acid) DNA: AGGTCTATATAAGCAGAGCTCGTTTAGTGAACCGTCAGATCGCCTAGATACGCCATCCACGCTGTTTTGACCTCCATAGAAGATCGCCACC",does not change,–,–,–,–,–,–,–
"RTV-017: synthetic forskolin-inducible promoter, SEQ ID NO: 43; 8× AP1(1) TFBS and CMV-MP minimal promoter (nucleic acid, Synp-RTV-017, 8× AP1(1) TFBS and CMV-MP minimal promoter) DNA: TGAGTCAGATGATGCGTAGCTAGTAGTTGAGTCAGATGATGCGTAGCTAGTAGTTGAGTCAGATGATGCGTAGCTAGTAGTTGAGTCAGATGATGCGTAGCTAGTAGTTGAGTCAGATGATGCGTAGCTAGTAGTTGAGTCAGATGATGCGTAGCTAGTAGTTGAGTCAGATGATGCGTAGCTAGTAGTTGAGTCAGTAGTCGTATGCTGATGCGCAGTTAGCGTAGCTGAGGTACCGTCGACGATATCGGATCCAGGTCTATATAAGCAGAGCTCGTTTAGTGAACCGTCAGATCGCCTAGATACGCCATCCACGCTGTTTTGACCTCCATAGAAGATCGCCACC",–,44,low background activity,23,high activity,low background activity,high activity; also recorded: much higher activity,13

# Reference: patent US20230167458A1, “FORSKOLIN-INDUCIBLE PROMOTERS AND HYPOXIA-INDUCIBLE PROMOTERS” (ASKLEPIOS BIOPHARMACEUTICAL, INC., priority 2020, published 2023)
